What all share (assay): fluorescence anisotropy; FA: 10 nM RNA, 50 mM sodium phosphate pH 8, 150 mM NaCl, 10 mM beta-mercaptoethanol, 20 C (protein stock in 300 mM NaCl); NMR: same buffer with 300 mM NaCl, 20
Common to all, as to details: protein: recombinant; tags: C-terminal His6; label: 5' fluorescein or TAMRA (FA); unlabeled (NMR)
For orientation: Fluorescence polarisation rises when a labelled molecule tumbles more slowly, as on binding a larger partner.

The target of one data set is T1, Nrd1 307-491 H376A (Saccharomyces cerevisiae, UniProt P53617 307-491, H376A).
T1 sequence: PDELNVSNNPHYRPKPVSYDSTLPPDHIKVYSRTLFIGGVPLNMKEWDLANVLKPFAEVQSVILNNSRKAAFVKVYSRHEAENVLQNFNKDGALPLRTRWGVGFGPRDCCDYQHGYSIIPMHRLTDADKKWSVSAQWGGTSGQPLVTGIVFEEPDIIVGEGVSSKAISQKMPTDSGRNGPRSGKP

The next data set addresses T2, Nrd1 307-491 G407A (Saccharomyces cerevisiae, UniProt P53617 307-491, G407A).
T2 sequence: T1 sequence with A70H, G101A

In the next data set the target is T3, Nrd1 307-491 N349A (Saccharomyces cerevisiae, UniProt P53617 307-491, N349A).
T3 sequence: T1 sequence with N43A, A70H

Another data set deals with T4, Nrd1 307-491 D417A (Saccharomyces cerevisiae, UniProt P53617 307-491, D417A).
T4 sequence: T1 sequence with A70H, D111A

The target in a further data set is T5, Nrd1 307-491 WT (Saccharomyces cerevisiae, UniProt P53617 307-491).
T5 sequence: T1 sequence with A70H

Another data set addresses T6, Nrd1 307-491 H385A (Saccharomyces cerevisiae, UniProt P53617 307-491, H385A).
T6 sequence: T1 sequence with A70H, H79A

Where a chain is given by its changes, count along the chain named.

B1: GUAA (ssRNA)
RNA: GUAA
Broadly, the Kd is the equilibrium constant for the complex coming apart. In the case of B1, the dissociation constant Kd with Nrd1 307-491 H376A is 59.1 ± 2.6 µM; with Nrd1 307-491 G407A, 13.9 ± 1.7 µM; in the data set with Nrd1 307-491 N349A it was 10.2 ± 0.5 µM; with Nrd1 307-491 D417A, 17.9 ± 2 µM; with Nrd1 307-491 WT, 10.1 ± 0.8 µM; with Nrd1 307-491 H385A, 10.3 ± 1.7 µM.

Values taken from PMC4081072, “Structure and semi-sequence-specific RNA binding of Nrd1”.
